PMC5499572 (Nucleic Acids Research, 2017)
Numbering of substitutions follows the chain as printed. Values belong to the binder of their own block, whether it stands above or below them.

Assays:
His6TRX-Rrp9p = target: T1, His6TRX-Rrp9p (S. cerevisiae, UniProt Q06506 1-573); assay: native gel or EMSA
T1 sequence: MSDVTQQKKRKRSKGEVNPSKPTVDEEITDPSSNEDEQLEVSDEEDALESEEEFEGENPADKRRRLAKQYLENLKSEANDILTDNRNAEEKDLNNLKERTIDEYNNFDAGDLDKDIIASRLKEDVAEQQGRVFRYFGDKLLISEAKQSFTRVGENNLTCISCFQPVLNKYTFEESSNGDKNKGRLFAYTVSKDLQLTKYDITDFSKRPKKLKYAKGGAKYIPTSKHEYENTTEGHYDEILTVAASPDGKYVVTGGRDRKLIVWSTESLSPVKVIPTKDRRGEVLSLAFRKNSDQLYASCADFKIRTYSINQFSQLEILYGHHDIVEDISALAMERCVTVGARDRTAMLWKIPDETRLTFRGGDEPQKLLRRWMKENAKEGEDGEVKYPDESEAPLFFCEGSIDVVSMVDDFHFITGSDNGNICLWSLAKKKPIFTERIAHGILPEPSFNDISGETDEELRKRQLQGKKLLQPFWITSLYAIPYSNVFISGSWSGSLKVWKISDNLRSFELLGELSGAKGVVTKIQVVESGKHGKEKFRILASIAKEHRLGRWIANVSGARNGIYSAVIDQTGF

Rsa1p_(230-381) = target: T2, Rsa1p_(230-381) (S. cerevisiae, UniProt Q08932 230-381); assay: native gel or EMSA
T2 sequence: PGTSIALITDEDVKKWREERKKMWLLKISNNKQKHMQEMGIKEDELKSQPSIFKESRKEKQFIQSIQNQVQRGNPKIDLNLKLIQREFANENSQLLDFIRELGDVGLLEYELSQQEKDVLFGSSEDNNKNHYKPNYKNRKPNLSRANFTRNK

binding result (His6TRX-Rrp9p): binds
binding result (Rsa1p_(230-381)): binds
B1: Snu13p (recombinant, wild type) (natural protein)
chain: MSAPNPKAFPLADAALTQQILDVVQQAANLRQLKKGANEATKTLNRGISEFIIMAADCEPIEILLHLPLLCEDKNVPYVFVPSRVALGRACGVSRPVIAASITTNDASAIKTQIYAVKDKIETLLI

binding result (His6TRX-Rrp9p): binds
B2: Snu13p variant E72/A (recombinant) (natural protein)
chain: B1 chain with E72A
